Source: PMC8421374

Key:
[1] = single-channel recordings at five voltages; settings: glycan lost; control: WT Piezo1
[2] = cell-attached patch clamp, peak stretch-activated current, Piezo1-/- HEK293T; settings: glycan lost; control: WT Piezo1-GFP
[3] = inactivation time constants, cell-attached patches; settings: glycan lost; control: WT Piezo1-GFP
[4] = cell-attached patch clamp, split construct, Piezo1-/- HEK293T; settings: glycan lost; control: WT split Piezo1
[5] = live cell anti-HA surface labelling, confocal; settings: glycan lost; control: WT Piezo1 with extracellular HA tag
[6] = Fura-2 ratiometric Ca2+ imaging, 2 µM Yoda-1; settings: glycan lost; control: WT Piezo1
[7] = immunogold TEM, membrane/cytoplasm labelling ratio; settings: glycan lost; control: WT Piezo1

| Substance | other: unitary conductance, other: unitary conductance [1] | other: channel current [2] | other results |
| --- | --- | --- | --- |
| human Piezo1: N295Q | no change | – | – |
| human Piezo1: N295Q and N885Q | – | decreases | – |
| human Piezo1: N658Q | no change | decreases | – |
| human Piezo1: N658Q and N885Q | – | decreases | – |
| human Piezo1: N885Q | no change | decreases | – |
| human Piezo1: N892Q | no change | – | – |
| human Piezo1: N1095Q | no change | – | – |
| human Piezo1: N2294Q | – | no change | other: channel inactivation kinetics [3]: no change |
| human Piezo1: N2294Q and N2331Q | – | – | other: channel current [4]: abolishes |
| human Piezo1: N2294Q/N2331Q | – | – | localisation_or_trafficking [5]: abolishes; other: Yoda-1-evoked Ca2+ influx [6]: abolishes |
| human Piezo1: N2294Q/N2331Q (CapQQ) | – | decreases | localisation_or_trafficking [7]: decreases |
| human Piezo1: N2331Q | – | no change | other: channel inactivation kinetics [3]: no change |
